This test deals with T1, myristoylated zGCAP2 (zebrafish), Q90WX3.
T1 chain: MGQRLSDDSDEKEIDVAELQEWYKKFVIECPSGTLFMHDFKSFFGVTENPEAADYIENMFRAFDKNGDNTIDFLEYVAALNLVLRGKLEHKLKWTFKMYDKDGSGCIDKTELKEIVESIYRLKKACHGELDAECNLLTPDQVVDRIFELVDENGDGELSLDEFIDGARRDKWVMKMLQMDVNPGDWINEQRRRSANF
In words: SEC; analytical size exclusion chromatography of purified myristoylated zGCAPs on a Primaide HPLC system, as described previously (refs 12, 18, 30); Ca2+ dependence tested; data not shown. Particulars: remark: other sources report otherwise. A general note: In gel filtration, larger molecules generally elute earlier.

Among the data in article PMC4462140 are percent monomeric form and stoichiometry N values, retold here.

B1: myristoylated zGCAP2, Q90WX3 1-197 (natural protein)
chain: MGQRLSDDSDEKEIDVAELQEWYKKFVIECPSGTLFMHDFKSFFGVTENPEAADYIENMFRAFDKNGDNTIDFLEYVAALNLVLRGKLEHKLKWTFKMYDKDGSGCIDKTELKEIVESIYRLKKACHGELDAECNLLTPDQVVDRIFELVDENGDGELSLDEFIDGARRDKWVMKMLQMDVNPGDWINEQRRRSANF
modifications: here or on the partner: N-terminal myristoyl group; N-terminal myristoyl group
For B1, the percent monomeric form was determined as 80% and the stoichiometry N came out at 2.

In general, stoichiometry N refers to the number of molecules, sites or subunits per partner or assembly.
